This note sets out measurements from publication PMC4072508, “Genome-Wide Prediction and Validation of Peptides That Bind Human Prosurvival Bcl-2 Proteins” (PLoS Computational Biology, 2014).

What all share (experiment): peptide SPOT array, c-Myc-tagged receptor at 1 uM or 100 nM, anti-c-Myc-Cy3
Assay [1] deals with Bcl-xL, Q07817.
Assay [2] addresses T1, Bfl-1, Q16548.
T1 chain: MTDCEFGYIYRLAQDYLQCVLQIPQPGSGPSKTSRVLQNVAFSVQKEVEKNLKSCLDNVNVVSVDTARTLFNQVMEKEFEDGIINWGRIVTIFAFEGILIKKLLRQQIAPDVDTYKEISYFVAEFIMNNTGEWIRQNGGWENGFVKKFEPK

The target in assay [3] is T2, Mcl-1, Q07820.
T2 chain: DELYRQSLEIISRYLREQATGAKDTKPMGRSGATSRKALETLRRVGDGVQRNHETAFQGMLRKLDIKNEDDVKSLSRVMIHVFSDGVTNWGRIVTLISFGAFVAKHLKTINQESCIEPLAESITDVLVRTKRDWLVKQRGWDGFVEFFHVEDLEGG

Sequence of Bcl-xL, Q07817 (Q07817 1-209): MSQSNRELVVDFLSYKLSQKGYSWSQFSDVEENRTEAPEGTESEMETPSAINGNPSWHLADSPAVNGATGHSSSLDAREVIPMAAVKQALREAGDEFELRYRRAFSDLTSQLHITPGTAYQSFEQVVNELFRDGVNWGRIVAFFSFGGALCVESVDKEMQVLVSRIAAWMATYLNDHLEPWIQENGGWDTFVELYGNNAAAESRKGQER

HHSSQEMSSEYREYADSFGKCPGGRN [PCYT2]: the SPOT signal as a fraction of Bim BH3's signal on the same receptor and array in assay [1] was found to be 0.05; in assay [2], 0.03; in assay [3], 0.04.

Consider AELRLFLAQRLRWLLDSCPASRATCV [NBEAL2], for which the SPOT signal as a fraction of Bim BH3's signal on the same receptor and array in assay [1] amounted to 0.52; in assay [2], 0.53; in assay [3], 0.72.

Turning to ADVHGIWSRLDCDFGDEFEVLDTTGE [UBA6], the SPOT signal as a fraction of Bim BH3's signal on the same receptor and array in assay [1] was determined as 0.06; in assay [2], 0.03; in assay [3], 0.04.

On to NGGLLEFHKSLQEIGDKNDHWFDIDP [DZIP3], for which the figures for the SPOT signal as a fraction of Bim BH3's signal on the same receptor and array in assay [1], in assay [2] and in assay [3] were 0.11, 0.04 and 0.04, respectively.

With LCQLSCVSKLMRDVLGSLLQSRGMVI [FBXO30], the SPOT signal as a fraction of Bim BH3's signal on the same receptor and array in assay [1] was determined as 0.38; in assay [2] it was 0.38; in assay [3], 0.26.

On to TVATRRLSGFLRTLLDRLEGTKELLS [MINA], for which the SPOT signal as a fraction of Bim BH3's signal on the same receptor and array in assay [1] stood at 0.31; in assay [2], 0.21; in assay [3], 0.29.

As to PKKKMTLSEIYQWICDNFPYYREAGS [FOXJ3], the SPOT signal as a fraction of Bim BH3's signal on the same receptor and array is 0.33 in assay [1], 0.12 in assay [2] and 0.22 in assay [3].

On to ACGDSVLARMLRELLDSLRRPQLRLW [SLC19A1], for which the values for the SPOT signal as a fraction of Bim BH3's signal on the same receptor and array in assay [1], in assay [2] and in assay [3] were 0.71, 0.33 and 0.28, respectively.

VTLLSEVEKMDSNFGDCVQYKEIVKN [SYNE1]: the values for the SPOT signal as a fraction of Bim BH3's signal on the same receptor and array in assay [1], in assay [2] and in assay [3] were 0.09, 0.05 and 0.05, respectively.

Turning to SDIRDDISEQVRHVLRTVRGHPRKKL [TMEM184C], the figures for the SPOT signal as a fraction of Bim BH3's signal on the same receptor and array in assay [1], in assay [2] and in assay [3] were 0.88, 0.34 and 0.31, respectively.

In the case of KGTAVAICRRLGIFGDTEDVAGKAYT [ATP2A3], the SPOT signal as a fraction of Bim BH3's signal on the same receptor and array worked out at 0.23 in assay [1], 0.25 in assay [2] and 0.19 in assay [3].

RAKASSLSEELKHFLDGLETDGTLQK [DSN1]: the SPOT signal as a fraction of Bim BH3's signal on the same receptor and array is 0.26 in assay [1], 0.17 in assay [2] and 0.18 in assay [3].

Turning to VLELHPGAQRLHIGLDEVYYLGEGEA [HEXDC], the SPOT signal as a fraction of Bim BH3's signal on the same receptor and array worked out at 0.06 in assay [1], 0.04 in assay [2] and 0.05 in assay [3].

For YFKLFRASGDDRTNGDNYLYEIQLSS [IGF2R], the SPOT signal as a fraction of Bim BH3's signal on the same receptor and array in assay [1] worked out at 0.25; in assay [2], 0.29; in assay [3], 0.28.

Regarding MSILTIASAVDEFVGDGIYNNTMGHV [TAP1], the results for the SPOT signal as a fraction of Bim BH3's signal on the same receptor and array in assay [1], in assay [2] and in assay [3] were 0.06, 0.03 and 0.04, respectively.

For MRPEIWIAQELRRILDEFNAYYARRV [BCL2L11], the SPOT signal as a fraction of Bim BH3's signal on the same receptor and array in assay [1] is 0.1; in assay [2], 0.05; in assay [3], 0.05.

In the case of LALLAQPSHLMRQVARSVFGHICSHL [MYBBP1A], the SPOT signal as a fraction of Bim BH3's signal on the same receptor and array in assay [1] was determined as 0.96; in assay [2], 0.57; in assay [3], 0.57.

As to RKDAELLCWDLRQSGYPLWSLGREVT, the SPOT signal as a fraction of Bim BH3's signal on the same receptor and array in assay [1] was 0.07; in assay [2], 0.05; in assay [3], 0.06.

On to AEVMRQRGINMRYLGKVLELVLRSPA [KIAA0664], for which the values for the SPOT signal as a fraction of Bim BH3's signal on the same receptor and array in assay [1], in assay [2] and in assay [3] were 0.94, 0.52 and 0.69, respectively.

Regarding DSLLWKLAGLDRESGDVVLSGCSTLS [STK11IP], the SPOT signal as a fraction of Bim BH3's signal on the same receptor and array in assay [1] worked out at 0.06; in assay [2], 0.04; in assay [3] it was 0.04.

Take RKDAELLCWDLRQSLYPLWSLGREVT: the values for the SPOT signal as a fraction of Bim BH3's signal on the same receptor and array in assay [1], in assay [2] and in assay [3] were 0.09, 0.05 and 0.07, respectively.

With FGEYSGISENIILVLDDFWIPETSFI [ROS1], the SPOT signal as a fraction of Bim BH3's signal on the same receptor and array was determined as 0.07 in assay [1], 0.04 in assay [2] and 0.06 in assay [3].

Regarding QASREAGAAALRNVLQRLFENYQTQS [CCDC68], the SPOT signal as a fraction of Bim BH3's signal on the same receptor and array worked out at 0.28 in assay [1], 0.18 in assay [2] and 0.2 in assay [3].

Turning to RLRQLGVAKKDGVLSDNFKGKRIVLV [PPAT], the SPOT signal as a fraction of Bim BH3's signal on the same receptor and array was 1.16 in assay [1], 0.44 in assay [2] and 0.68 in assay [3].

As to QAGPVSSGLADRKLGDRVQLLNLLVT [CCDC57], the SPOT signal as a fraction of Bim BH3's signal on the same receptor and array in assay [1] was determined as 0.1; in assay [2], 0.07; in assay [3], 0.07.

As for AGYELLIQKFDSLYGDQIDMHRKFVV [ISOC1], the figures for the SPOT signal as a fraction of Bim BH3's signal on the same receptor and array in assay [1], in assay [2] and in assay [3] were 0.08, 0.05 and 0.07, respectively.

As to GTAVAYRGAHLRGRGRAVYNTFRAAP [XXXX], the SPOT signal as a fraction of Bim BH3's signal on the same receptor and array in assay [1] was 2.82; in assay [2], 1.26; in assay [3] it was 1.6.

QRKHEGFERDDAALGDKVNSLGETAE [SPTAN1]: the SPOT signal as a fraction of Bim BH3's signal on the same receptor and array in assay [1] is 0.08; in assay [2], 0.08; in assay [3], 0.09.
